# Experimental data: the nanobody polyreactivity screen of Harvey et al. (2022)
# Assay: yeast display, Sf9 membrane polyspecificity reagent, FACS + sequencing; frameworks hold sequencing errors
# How it was run: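 Using colony PCR, genes from sorted yeast display clones were amplified, then sequenced on MiSeq at 2 × 250 and filtered by CDR length. The clones had been stained with 10% biotinylated, detergent-solubilized Sf9 membrane reagent for 1 hour at 4 °C and sorted by FACS into low and high (top ~1%) gates on anti-HA and streptavidin fluorescence. Polyreactivity labels come from the gate of origin.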
row,Sequence,polyreactivity (PSR sort gate)
1,QVQLVESGGGLVQAGGSLRLSCAASGSIYGDYAMGWYRQAPGKERELVAAISWRGVRTYYADSVKGRFTISRDNAKNTVYLQMNSLNPEDTAVYYCDAEYYFVNRGAWYDYWGQGTQVTVSS,high polyreactivity
2,QVQHVESVGGLVQAGGSLRLSCAASGRTFGAYDMGWYRQAPGKERELVAAITRSGGSTYYADSVKGRFTISRDNAKNTVYLQMNSLKPEDTAVYYCAARDQVYNYRFGSRGGVYYWGQGTQVTVSS,high polyreactivity
3,QVQLVESGGGLVQAGGSLRLSCAASGSIFVPYGMGWYRKAPGTDRELVAAITFRTTSTYYADSVKGRFTISRDNAKNTVYLQMNSLKPEDTAVYYCNKGDYRTYPYDYWGQGTQVTVSS,low polyreactivity
4,QVQLVESGGGLVQAGGSLRLSCAPSGFIFYFYTMGRYRQAPGKEMELVAGITWLDGSTYYADSVKGRLTISRDNAKNTVYLQRNSLKPEDTAVYYCAVDYDLVVSPYYYWGQGTQVTVSS,low polyreactivity
5,QVQLVESGGGLVQAGGSLRLSCAASGSIFTVNAMGWYRQAPGKERELVATISVTGGSTYADSVKGRFTISRENAKNTVYLQMNSLKPEDTAVYYCAADKTVRWDFDYRGQGTQVTVSS,low polyreactivity
6,QVQLVESGGGIVQAGGSLRLSCAASGFTFDPYAMGWYRQAPGKERELVAATSWSGGSTYYADSVKGRFTISRDNAKNTVYLQMNSLKPEDTAVYYCAAEWYNSAYYEYDYWGQGTQVTVSS,high polyreactivity
7,QVQLVESGGGLVQAGGSLRLSCAASGRIFPYYGMGWYRHAPGKERELVAAITWDSGSTYYADSVKGRFTISRDNAKNTVYLQMNSLKPEDTAVYYCAAPISFYSPAEYYYWGQGTQVTVSS,low polyreactivity
8,QVQLVESGGGLVQAGGSLRLSCAASGGTSAVYAMGWYRQAPGKERELVAAISSDGSTNYADSVKGRFTISRDNAKNTVYLQMNSLKPEDTAVYYCAVDFSTYEWSGHITRASGSYDYWGQGTQVTVSS,low polyreactivity
9,QVQLQESGGGLVQAGGSLRLSCAASGSISHYIFRGWYRQAPGKEPEFVAGIGYGGTTNYADSVKGRFTISRDNAKNTVYLQMNSLKPEDTAMYYCAAREATEFYLYYWGQGTQVTVIS,low polyreactivity
10,QVQLVESGGGLVQAGGSLRISCAASGSTSLYYAMGWYSQAPGKEREFVAANTWSGGSTYYADSVKGRFTISRDNAKNSVYLQMNSLQPVDTAVDYWAARSYGYSAGYYWRQGTQVTVSS,high polyreactivity
11,QVQLVDSGGGLVQAGGSLRISCAASGRNFGYNAMGSYRQAPGKERELVAAISSGGSTYYADSVKGLFTISRDNAKNTVYLQINSLKPEDTAVYFCAAEDYPPYPTDYDYWGQGSQVTVSS,low polyreactivity
12,QVQLVESGGGLVQAGGSLRLSCAASGRTFYQNVMGWSRQAPGKERELVAAITWGGGSTYYADSVKGRFTISRDNAKNTVYLQMNSLKPEDTAVYYCNRTFRSRLPTSRGYDYWGQGTQVTVSS,low polyreactivity
13,QVQLVESGGGLVQAGGSLRLSCAASGFTFVPYAMGWYRPAPGKERELLAAIDFDDATTYYADSVKGRFTISRDNAKNTVYLQMNSLKPEDTAVYYCAAVYYRRSYQGGYEYWGQGTQVTVSS,high polyreactivity
14,QVQLVESGGGLVQAGGSLRLSCAASGFIFDAYAMGWYRQAPGKERELVAAITRGNTYYADSVTGRFTISRDNAKNTVYLQMNSLKPEDTAVYYCAARYWQSYRSQVTHSSTLDYWGQGTQVTVSS,low polyreactivity
15,QVQLVESGGGLVQAGGSLRLSCASSGFTFGVYAMGWYRTAPGKERELVAGITRGGSTNYADSVKGRFTISRDNAKNTVYLQMNSLKPEDTAVYYCAKVSYGYLRSWGRYTRGDYWGQGTQVTVSS,high polyreactivity
16,QVQLVESGGGLVQAGGSLRLSCAASGSTFYDNAMGWYRQAPGKERELVARITWNGGRTYYADSVKGRFTISRDNAKNTVYLQMNSLKPEDTAVYYCNAVYWGYGKYDYWGQGTQVTVSS,high polyreactivity
17,QVQLVESGGGLVQAGGSLRLSCAASGSNFGYYAMAWYRQAPGKERELVAVITWNTGNTYYADSVKGRFTISRDNAKNTVYLQMNRLKPEDTAVYYCAADQTGWGDTYDYWGQGTEVTVSS,low polyreactivity
18,QVQLVESGGGLVQAGGSLRLSCAASGGIFGGYAMGWYRQAPGKEGELVPVITSGGSTYYADSVKARFTISRDNAKNTVYLQMNSLKPEDTAVYYCAADGHSYSYSTYDYWGQGTQVTVSS,low polyreactivity
19,QVQLVESGGRLVKAGGSLRLSCPASGRIFADYAMGWYRQAPGKESELVADIRRSGGRTYYADSVKGRFTISRDNAKNTVYIQMNSLKPEDTAVYYCATDYGSWGDYSGNYDYWGQGTQVTVSS,low polyreactivity
20,QVQLVESGGGLVQEGGSLRLICAASGSTFGVNAMGWYRQAPGKERELVAAISSSGYSTYADSVKGRFTISRDNAKNTVYLQMNSLKPEDTAVYYCNKTTLLTVEYDYWGQGTQVTVSS,low polyreactivity
21,QVQLEESGGGLVQAGGSLRLSCAASGFITSHYAMGWYIQAPGKERELVATISSGGSTYADSVKGRFTISRDNAKNTVYLQMNSLKPEDTAVYYCNVRLQGTYRAGVRGDYWGQVTQVTVSS,high polyreactivity
22,QVQLVESGGGLVQAGGSLRLSCAASGFTFYLYAMGWYRQAPGKERELVAAISSGGSTNYADSVKGRFTISRDNAKNTVYLQMNSLKPEDTAVYYCNKRYRRATWWITAYDHWGQGTQVTVSS,high polyreactivity
